In the RNAGym collection of RNA variant scans (doi:10.7554/elife.90254):

B1: LINE1-mini (parent)
chain: GGCAGAGCUCAACACAGCGUGGCAAAGUGGCUGUGGCUAGACUGCC

Variants of: B1
Experiment: self-cleavage, relative activity (ratio to wild type); higher = more cleavage; in vitro, sequencing; the parent is a self-cleaving ribozyme

Variant	self-cleavage
GUCAGAGCUCAACACAGCGUGGCAAAGUGGCUGUGGCUAGACCGCC [G2U U43C]	0.06
GUCAGAGCUCAACACAGCGUGGCAAAGUGGCUGUGGCUAGACAGCC [G2U U43A]	0.04
GUCAGAGCUCAACACAGCGUGGCAAAGUGGCUGUGGCUAGACGGCC [G2U U43G]	0.02
GUCAGAGCUCAACACAGCGCGGCAAAGUGGCUGUGGCUAGACUGCC [G2U U20C]	0.05
GUCAGAGCUCAACACAGCGAGGCAAAGUGGCUGUGGCUAGACUGCC [G2U U20A]	0.07
GUCAGAGCUCAACACAGCGGGGCAAAGUGGCUGUGGCUAGACUGCC [G2U U20G]	0.05
GGAAGACCUCAACACAGCGUGGCAAAGUGGCUGUGGCUAGACUGCC [C3A G7C]	0.13
GGAAGAUCUCAACACAGCGUGGCAAAGUGGCUGUGGCUAGACUGCC [C3A G7U]	0.4
GGAAGAACUCAACACAGCGUGGCAAAGUGGCUGUGGCUAGACUGCC [C3A G7A]	0.97
GGAAGAGCUCAACUCAGCGUGGCAAAGUGGCUGUGGCUAGACUGCC [C3A A14U]	0.27
GGAAGAGCUCAACCCAGCGUGGCAAAGUGGCUGUGGCUAGACUGCC [C3A A14C]	0.16
GGAAGAGCUCAACGCAGCGUGGCAAAGUGGCUGUGGCUAGACUGCC [C3A A14G]	0.61
GGAAGAGCUCAACACAGCGUGGCAAAGUGGCUGUGGCUUGACUGCC [C3A A39U]	0.48
GGAAGAGCUCAACACAGCGUGGCAAAGUGGCUGUGGCUCGACUGCC [C3A A39C]	0.11
GGAAGAGCUCAACACAGCGUGGCAAAGUGGCUGUGGCUGGACUGCC [C3A A39G]	0.57
GGAAGAGCUCAACACAGCGUGGCAAAGUGGCUGUGGCUAGACUGCC [C3A]	0.58
GGAAGAGCUCAACACAGCGUGGCAAAGUGGCUGUGGCUAGAUUGCC [C3A C42U]	0.26
GGAAGAGCUCAACACAGCGUGGCAAAGUGGCUGUGGCUAGAAUGCC [C3A C42A]	0.33
GGAAGAGCUCAACACAGCGUGGCAAAGUGGCUGUGGCUAGAGUGCC [C3A C42G]	0.08

Variant	self-cleavage
GGAAGAGCUCAACACAGCAUGGCAAAGUGGCUGUGGCUAGACUGCC [C3A G19A]	0.61
GGAAGAGCUCAACACAGCCUGGCAAAGUGGCUGUGGCUAGACUGCC [C3A G19C]	0.18
GGAAGAGCUCAACACAGCUUGGCAAAGUGGCUGUGGCUAGACUGCC [C3A G19U]	0.24
GGAAGAGCUCAACACAGCGUGGAAAAGUGGCUGUGGCUAGACUGCC [C3A C23A]	0.61
GGAAGAGCUCAACACAGCGUGGGAAAGUGGCUGUGGCUAGACUGCC [C3A C23G]	0.45
GGAAGAGCUCAACACAGCGUGGUAAAGUGGCUGUGGCUAGACUGCC [C3A C23U]	0.71
GGAAGAGCUCAACACAGCGUGGCAAAGUGGCUGUGGCUAGGCUGCC [C3A A41G]	0.22
GGAAGAGCUCAACACAGCGUGGCAAAGUGGCUGUGGCUAGCCUGCC [C3A A41C]	0.15
GGAAGAGCUCAACACAGCGUGGCAAAGUGGCUGUGGCUAGUCUGCC [C3A A41U]	0.32
GGAAGAGCUCAACACAGCGUGGCAAAGUGGCUGUGGCUAGACUGUC [C3A C45U]	0.53
GGAAGAGCUCAACACAGCGUGGCAAAGUGGCUGUGGCUAGACUGAC [C3A C45A]	0.48
GGAAGAGCUCAACACAGCGUGGCAAAGUGGCUGUGGCUAGACUGGC [C3A C45G]	0.42
GGAAGAGCUCAACACAGCGUGGCAUAGUGGCUGUGGCUAGACUGCC [C3A A25U]	0.79
GGAAGAGCUCAACACAGCGUGGCAGAGUGGCUGUGGCUAGACUGCC [C3A A25G]	0.29
GGAAGAGCUCAACACAGCGUGGCACAGUGGCUGUGGCUAGACUGCC [C3A A25C]	0.41
GGAAGAGCUCAACACAGCGUGUCAAAGUGGCUGUGGCUAGACUGCC [C3A G22U]	0.71
GGAAGAGCUCAACACAGCGUGCCAAAGUGGCUGUGGCUAGACUGCC [C3A G22C]	0.58
GGAAGAGCUCAACACAGCGUGACAAAGUGGCUGUGGCUAGACUGCC [C3A G22A]	0.52
GUCAGAGCUCAACACAGCGUGGCAAAGUGGCUGUGGCUAGACUUCC [G2U G44U]	0.06

Variant	self-cleavage
GUCAGAGCUCAACACAGCGUGGCAAAGUGGCUGUGGCUAGACUCCC [G2U G44C]	0.09
GUCAGAGCUCAACACAGCGUGGCAAAGUGGCUGUGGCUAGACUACC [G2U G44A]	0.08
GGAAGAGCUCAAUACAGCGUGGCAAAGUGGCUGUGGCUAGACUGCC [C3A C13U]	1.71
GGAAGAGCUCAAGACAGCGUGGCAAAGUGGCUGUGGCUAGACUGCC [C3A C13G]	0.54
GGAAGAGCUCAAAACAGCGUGGCAAAGUGGCUGUGGCUAGACUGCC [C3A C13A]	0.25
GGAAGAGCUCCACACAGCGUGGCAAAGUGGCUGUGGCUAGACUGCC [C3A A11C]	0.04
GGAAGAGCUCGACACAGCGUGGCAAAGUGGCUGUGGCUAGACUGCC [C3A A11G]	0.06
GGAAGAGCUCUACACAGCGUGGCAAAGUGGCUGUGGCUAGACUGCC [C3A A11U]	0.06
GGAAGAGCUGAACACAGCGUGGCAAAGUGGCUGUGGCUAGACUGCC [C3A C10G]	0.05
GGAAGAGCUAAACACAGCGUGGCAAAGUGGCUGUGGCUAGACUGCC [C3A C10A]	0.07
GGAAGAGCUUAACACAGCGUGGCAAAGUGGCUGUGGCUAGACUGCC [C3A C10U]	0.19
GGAAGAGCUCAACACAGCGUAGCAAAGUGGCUGUGGCUAGACUGCC [C3A G21A]	1.23
GGAAGAGCUCAACACAGCGUCGCAAAGUGGCUGUGGCUAGACUGCC [C3A G21C]	0.23
GGAAGAGCUCAACACAGCGUUGCAAAGUGGCUGUGGCUAGACUGCC [C3A G21U]	0.47
GGAAGAGCUCAACACAGCGUGGCAAAGUGGCUGUGGGUAGACUGCC [C3A C37G]	0.28
GGAAGAGCUCAACACAGCGUGGCAAAGUGGCUGUGGUUAGACUGCC [C3A C37U]	0.33
GGAAGAGCUCAACACAGCGUGGCAAAGUGGCUGUGGAUAGACUGCC [C3A C37A]	0.35
GGAAGAGCUCAACACUGCGUGGCAAAGUGGCUGUGGCUAGACUGCC [C3A A16U]	0.13
